The record followed here is patent US20230365711A1 (Hoffmann-La Roche, published 2023).

The target in experiment [1] is T1, huNABA-avi-his (hybrid protein N-A1-B3-A2: N and A1 domains of human BGP, B3 domain of human CEA, A2 domain … (human, biotinylated at the avi tag (in vivo, co-transfected biotin ligase))).
T1 construct: also called NABA-avi-his reagent; biotinylated NABA
T1 chain: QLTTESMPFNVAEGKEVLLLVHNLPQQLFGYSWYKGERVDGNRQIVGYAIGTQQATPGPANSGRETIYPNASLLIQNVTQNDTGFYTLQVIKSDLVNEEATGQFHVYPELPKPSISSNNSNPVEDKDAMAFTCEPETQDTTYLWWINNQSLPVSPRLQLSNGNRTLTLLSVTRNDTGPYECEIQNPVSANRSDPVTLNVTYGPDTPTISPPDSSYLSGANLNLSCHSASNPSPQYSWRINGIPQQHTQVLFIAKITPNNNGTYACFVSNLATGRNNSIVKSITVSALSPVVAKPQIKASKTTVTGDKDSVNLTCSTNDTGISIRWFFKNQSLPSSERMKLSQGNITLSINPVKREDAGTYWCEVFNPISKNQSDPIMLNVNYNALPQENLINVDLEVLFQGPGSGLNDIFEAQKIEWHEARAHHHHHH
Description: Biacore, column Affinity, CDR-H1 and CDR-H2 rows; antigen not named on the sheet, NABA-avi-his per paragraph 230. (In SPR one partner is held on a chip, and binding of the other changes the refractive index at the surface.)

Experiment [2] has as its target huNABA-avi-his (hybrid protein N-A1-B3-A2: N and A1 domains of human BGP, B3 domain of human CEA, A2 domain of BGP, with precision protease site, avi tag and (His)6 tag), biotinylated (human). Description: Biacore on immobilized NABA-avi-his; Bivalent Affinity.
Experiment [3] addresses T1, huNABA-avi-his (hybrid protein …). As to the kind of experiment: Biacore, column Affinity, CDR-H3 rows; antigen not named on the sheet, NABA-avi-his per paragraph 230.
Experiment [4] has the same target. Description: Biacore, Fab on immobilized NABA-avi-his; column Monovalent Affinity.
Experiment [5] has the same target. As to the kind of experiment: Biacore, column Affinity, CDR-L1 and CDR-L2 rows; antigen not named on the sheet, NABA-avi-his per paragraph 230.
Experiment [6] shares this target. As to the kind of experiment: Biacore SPR, Fab; antigen not named on the sheet, NABA-avi-his per paragraph 230.
Experiment [7] has the same target. Description: Biacore, column Affinity, CDR-H1 and CDR-H2 rows; antigen not named on the sheet, NABA-avi-his per paragraph 230.
Experiment [8] has the same target. As to the kind of experiment: Biacore on immobilized NABA-avi-his; Bivalent Affinity.
Experiment [9] has the same target. As to the kind of experiment: Proteon SPR, antibody analyte on biotinylated NABA (Neutravidin chip); column Ka (M).
Experiment [10] shares this target. Description: Proteon SPR, antibody analyte on biotinylated NABA (Neutravidin chip).
Experiment [11] shares this target. The description is as above. From the text: (§1) Proteon (Biacore) sensorgrams were obtained for the binding of the combined framework and CDR-H3 variants to the CEA antigen-harbouring chimeric protein NABA. […] The precursor clone 5L1A10 and the parental antibody CH7A were included for direct comparison. All antibodies tested in this assay had 2F1 as the light chain FIG. 25.

For experiment [12] the target is unchanged. The description is as above.
Experiment [13] shares this target. Description: Proteon SPR, antibody analyte on biotinylated NABA (Neutravidin chip); column Ka (M).
Source text: as §1

For experiment [14] the target is unchanged. The experiment is described as above.
Experiment [15] concerns the target T2, human carcinoembryonic antigen (CEA), membrane-bound on cells (human, UniProt P06731 35-685).
T2 construct: whole, on cells; also called CEACAM-5; CD66e
T2 sequence (looked up): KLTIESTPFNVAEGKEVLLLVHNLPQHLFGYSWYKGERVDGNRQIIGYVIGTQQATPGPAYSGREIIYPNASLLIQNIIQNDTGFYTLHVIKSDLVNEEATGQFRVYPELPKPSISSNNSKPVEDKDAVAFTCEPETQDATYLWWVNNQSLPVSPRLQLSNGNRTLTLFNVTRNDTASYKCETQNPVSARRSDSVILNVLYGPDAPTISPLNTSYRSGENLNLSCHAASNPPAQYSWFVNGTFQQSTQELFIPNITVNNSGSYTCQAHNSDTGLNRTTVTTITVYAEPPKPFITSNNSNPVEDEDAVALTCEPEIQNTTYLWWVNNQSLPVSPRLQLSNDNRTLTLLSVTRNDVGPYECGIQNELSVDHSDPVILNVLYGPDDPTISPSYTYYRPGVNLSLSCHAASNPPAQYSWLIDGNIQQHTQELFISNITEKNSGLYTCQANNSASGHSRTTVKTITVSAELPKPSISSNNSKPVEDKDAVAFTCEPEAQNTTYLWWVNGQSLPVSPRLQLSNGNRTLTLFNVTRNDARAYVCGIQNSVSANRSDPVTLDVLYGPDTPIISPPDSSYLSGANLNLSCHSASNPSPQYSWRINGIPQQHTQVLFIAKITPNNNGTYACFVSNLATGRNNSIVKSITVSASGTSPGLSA
Description: flow cytometry on MKN45 cells, IgG1/kappa. As to the method:
(§2) An affinity matured heavy chain variable region construct, CH7A rF9, and an affinity matured light chain variable region construct, CL1A rH11, were paired with the parent light chain variable region construct and the heavy chain variable region construct, respectively, and with each other. All antibodies were converted into human IgG1/kappa and binding to the CEA-positive cell-line MKN45 was measured by flow cytometry. […] The matured light chain shifts the EC50 values to lower numbers, whereas the matured heavy chains (rF9 in FIG. 6, and rB9 in FIG. 15) shift the total fluorescence signal intensity in a flow-cytometry measurement. […] The combination of these two chains increases the affinity even further.
On the technique in general: A flow cytometer gives signals particle by particle.

In experiment [16] the target is T2, human carcinoembryonic antigen (CEA), …. As to the kind of experiment: flow cytometry on MKN45 cells, IgG [upper panel]. As to the method: as §2
Experiment [17] shares this target. Description: flow cytometry on CEA positive MKN45 cells, IgG [lower panel]. As to the method: as §2

Residue numbers refer to the chain shown, from its start.

B1: H3 Full (5) 19 (Fab, V domains shown)
VH: QVQLVQSGSELKKPGASVKVSCKASGYTFTEFGMSWVRQAPGQGLEWMGWINTKTGEATYVEEFKGRFVFSLDTSVSTAYLQISSLKAEDTAVYYCARWDAFEYVKALDYWGQGTTVTVSS
VL: DIQMTQSPSSLSASVGDRVTITCKASQNVGTNVAWYQQKPGKAPKLLIYSASYRYSGVPSRFSGSGSGTDFTLTISSLQPEDFATYYCHQYYTYPLFTFGQGTKLEIK
Broadly, the koff is the first-order rate constant of dissociation. A low value points to a long-lived complex. By kon is commonly meant the rate constant with which the complex forms. With B1, the Kd in experiment [1] was found to be 26 nM; in experiment [2], 0.19 nM; in [3], 26 nM; in experiment [4], 24 nM. The koff in [2] was determined as 0.000175 s⁻¹; in experiment [4], 0.0013 s⁻¹. The association rate constant (kon) in [2] amounted to 902000 M⁻¹ s⁻¹; in experiment [4], 54200 M⁻¹ s⁻¹.

B2: anti-CEA Fab with unmatured heavy chain CH7A and affinity matured light chain CL1A pAC18 (Fab, V domains shown)
VH: B1 VH with S35N, A101F, F102Y, E103D, K106E, L108M
VL: DIQMTQSPSSLSASVGDRVTITCKASAAVGTYVAWYQQKPGKAPKLLIYSASYRKRGVPSRFSGSGSGTDFTLTISSLQPEDFATYYCHQYYTYPLFTFGQGTKLEIKR
notes: Fab format, bacterially expressed; also called CH7A + CL1A pAC18
B2: the Kd in experiment [5] came out at 220 nM. This molecule displayed a Kd in experiment [6] of 216 nM. Further, in experiment [4], the Kd was 220 nM, the off-rate constant (koff) came out at 0.0207 s⁻¹ and the kon amounted to 95700 M⁻¹ s⁻¹.

B3: PR1A3 (Fab, V domains shown)
VH: B1 VH with S35N, A101F, F102Y, E103D, K106E, L108M
VL: B1 VL
notes: also called PR1A3 wt/wt; pMS22
On to B3, for which the Kd in experiment [5], in [7], in [3] and in [4] was 3680 nM each time. This molecule also gave a koff in experiment [4] of 0.0248 s⁻¹. In [4], this molecule registered a kon of 6740 M⁻¹ s⁻¹.

B4: humanized PR1A3 antibody with heavy chain variable region CH7A and light chain variable region 2F1 (antibody, V domains shown)
VH: B1 VH with S35N, A101F, F102Y, E103D, K106E, L108M
VL: B2 VL
notes: Measured in the bivalent form; also called CH7Ax2F1; parental antibody CH7A
B4: the Kd in experiment [8] is 0.952 nM; in experiment [10], 1.84 nM; in [11], 1.97 nM; in experiment [12], 1.07 nM. For the same molecule, the off-rate (koff) in [8] was found to be 0.00041 s⁻¹. Further, the on-rate constant (kon) in experiment [8] amounted to 423000 M⁻¹ s⁻¹; in [9], 122000 M⁻¹ s⁻¹; in [13], 369000 M⁻¹ s⁻¹; in experiment [14], 132000 M⁻¹ s⁻¹.

B5: antibody with parent heavy chain variable region CH7A and affinity matured light chain variable region CL1A rH11 (antibody, V domains shown)
VH: B1 VH with S35N, A101F, F102Y, E103D, K106E, L108M
VL: B1 VL with N28T, G30S, T31A, S50L, S56R
notes: The suffix G2(1) is not explained; also called CH7A, CL1ArH11; CH7A, CL1A rH11 G2(1)
For orientation: EC50 (read off the curve) means the concentration giving half of the maximal effect. On to B5, for which the entries for the concentration giving a half-maximal response (EC50 (read off the curve)) in experiment [15] and in experiment [16] were around 0.3 µg/mL and around 0.5 µg/mL, respectively.

B6: antibody with heavy chain variable region CH7A and affinity matured light chain variable region CL1A rH7 (antibody, V domains shown)
VH: B1 VH with S35N, A101F, F102Y, E103D, K106E, L108M
VL: B1 VL with N28K, G30L, S50L
notes: also called CH7A, CL1ArH7
For the molecule B6, the concentration giving a half-maximal response (EC50 (read off the curve)) in experiment [16] is around 0.7 µg/mL.

B7: anti-CEA Fab with affinity matured heavy chain CH7A H4E9 and affinity matured light chain CL1A pAC18 (Fab, V domains shown)
VH: B1 VH with S35N, V61I, A101F, F102Y, E103D, K106E, L108M
VL: B2 VL
notes: Fab format, bacterially expressed; also called CH7A H4E9 and CL1A pAC18
Take B7: in experiment [6], the Kd stood at 96 nM. In [4], the Kd came out at 96 nM, the dissociation rate constant (koff) turned out to be 0.0035 s⁻¹ and the on-rate constant (kon) was found to be 36400 M⁻¹ s⁻¹.

B8: antibody with affinity matured heavy chain variable region CH7A rB9 and affinity matured light chain variable region CL1A rH11 G2(1) (antibody, V domains shown)
VH: B1 VH with S35N, T55S, A101F, F102Y, E103D, K106E, L108M
VL: B1 VL with N28T, G30S, T31A, S50L, S56R
notes: also called CH7A rB9, CL1A rH11 G2(1); CH7ArB9, CL1A rH11G2(1)
On to B8, for which, in experiment [17], the concentration giving a half-maximal response (EC50 (read off the curve)) was around 0.5 µg/mL.

B9: humanized PR1A3 antibody comprising heavy chain variable region construct CH7A and light chain variable region construct CL1A (antibody, human IgG1, V domains shown)
VH: B1 VH with S35N, A101F, F102Y, E103D, K106E, L108M
VL: B1 VL
notes: also called CH7A CL1A; CH7A, CL1A
Turning to B9, in [8], the Kd was 2 nM, the koff turned out to be 0.000552 s⁻¹ and the kon came to 282000 M⁻¹ s⁻¹. Moreover, the “EC50 (read off the curve)” value in experiment [15] was around 0.6 µg/mL. In [17], the concentration for a half-maximal effect (EC50 (read off the curve)) is around 0.6 µg/mL.
